Positions count from the first letter of the chain named.

The term Kd denotes a measure of binding affinity in units of concentration.

For test [1], the target named is T1, human insulin receptor (human, UniProt P06213 28-1382).
T1 construct: whole, on cells; Uncomplexed receptor on serum-starved cells (CHOK1 transfectants or IM-9); also called hINSR; INSR
Nature of the test: FACS, serum-starved CHO-K1 cells expressing human INSR, no insulin. (In general: A flow cytometer gives signals particle by particle.)
Procedure: (§1) Twenty five microliter aliquots of cells were plated into 96 well plates, mixed with 25 ul of antibody or PPE and incubated on ice for 1 h.
(§2) The cells were then washed once with FACS buffer and the binding of the antibody was detected by the addition of 25 ul of an appropriate fluorochrome-conjugated secondary antibody. […] After a final 15 min incubation on ice the cells were washed and the pellets resuspended in FACS buffer. The cells were analyzed on a FACSCAN™ (Becton-Dickinson, Milipitas, Calif.) and the data analyzed in both FLOWJO™ (Treestar, Ashland, Oreg.) and Microsoft Excel™.

In test [2] the target is T2, mouse insulin receptor (mouse, UniProt P15208 28-1372).
T2 construct: whole, on cells; also called muINSR; mINSR
Nature of the test: FACS, serum-starved CHO-K1 cells expressing mouse INSR, no insulin.

Test [3] deals with T3, human insulin receptor complexed with human insulin (human, UniProt P06213 28-1382; P01308 25-54; P01308 90-110).
T3 construct: whole, on cells;mature; also called hINSR-hINS complex; INS/INSR complex
Nature of the test: FACS, serum-starved CHO-K1 cells expressing human INSR, with insulin.
Procedure: as §1, §2

Test [4] deals with T4, mouse insulin receptor complexed with human insulin (mouse; human, UniProt P15208 28-1372; P01308 25-54; P01308 90-110).
T4 construct: whole, on cells;mature; also called muINSR/hINS complex
As to the kind of experiment: FACS, serum-starved CHO-K1 cells expressing mouse INSR, with insulin.
Procedure: as §1, §2

Test [5] deals with T3, human insulin receptor complexed with …. Nature of the test: FACS, CHO-K1 human INSR cells, signal with insulin divided by signal without insulin.
Procedure: as §1, §2
Test [6] concerns the target T4, mouse insulin receptor complexed with …. As to the kind of experiment: FACS, CHO-K1 mouse INSR cells, signal with insulin divided by signal without insulin.
Procedure: as §1, §2
The target in test [7] is T1, human insulin receptor. As to the kind of experiment: FACS, serum-starved CHO-K1 cells expressing human INSR, no insulin [cont'd].
Procedure: as §1, §2
Test [8] deals with T2, mouse insulin receptor. Nature of the test: FACS, serum-starved CHO-K1 cells expressing mouse INSR, no insulin [cont'd].
Procedure: as §1, §2
Test [9] addresses T4, mouse insulin receptor complexed with …. Nature of the test: FACS, serum-starved CHO-K1 cells expressing mouse INSR, with insulin [cont'd].
Test [10] has the same target. Nature of the test: FACS, CHO-K1 mouse INSR cells, signal with insulin divided by signal without insulin [cont'd].
Test [11] deals with T3, human insulin receptor complexed with …. Nature of the test: FACS, serum-starved CHO-K1 cells expressing human INSR, with insulin [cont'd].
Procedure: as §1, §2
For test [12] the target is unchanged. Nature of the test: FACS, CHO-K1 human INSR cells, signal with insulin divided by signal without insulin [cont'd].
Procedure: as §1, §2
The target of test [13] is T1, human insulin receptor. As to the kind of experiment: KinExA antibody depletion by hINSR8-CHOK1 cells, without insulin. Background: Kinetic exclusion samples the free partner from a solution-phase mixture.
Procedure: (§3) Beads were rotated at room temperature for 6 hours then allowed to settle. Supernatant was replaced with PBS with 50 mg/mL BSA Fraction V (Sigma-Aldrich, St. Louis, Mo.) and rotated overnight at 4° C. […] On the KinExA 3000 the sample was injected at 0.25 mL/minute for 240 seconds, then rinsed for 60 seconds in running buffer (PBS with 0.05% sodium azide), then 240 seconds of the detection solution was injected, followed by a final 90 second wash at 1 mL/minute. The difference in voltage from an early initial time-point and a time point near the end of the run was measured and used to calculate affinities. The INSR concentration on the cells was estimated at 2.5×10⁵ receptors/cell. Affinity was determined using the KinExA software (Sāpidyne, Boise Id.) and EC50's were calculated by non-linear fit in Prism (GraphPad Software, La Jolla Calif.).
(§4) Samples were incubated overnight at 4° C. for 18 hours then centrifuged to pellet cells and supernatants were removed for testing on the KinExA. […] Detection solution used was R-PE-(Fab′)2 fragment goat anti-Human IgG(H+L) (Jackson Immuno Research, West Grove Pa.).
Test [14] addresses T3, human insulin receptor complexed with …. Nature of the test: KinExA antibody depletion by hINSR8-CHOK1 cells, with 175 nM insulin.
Procedure: as §3, §4

B1: Ab058 (antibody, IgG2, V domains shown)
VH: QLQLQQWGAGLLKPSETLSLTCAVYSGSFSGYYYSWIRQSPGRGLEWIGDISHTGSTDYNPSLKTRVTISVDTSKNQFSLNLNSVTAADTAVYYCARDAPKGGSGLYLFDYWGQGTLVTVSS
VL: QSVLTQPPSVSGAPGQRVTISCTGSRSNIGADHDVHWYQQIPGRAPKLLIYGNSNRPSGVPDRFSGSRSGTSASLAITGLQAEDEADYYCQSYDNSLSGSVFGGGTKLTVL
notes: also called XPA.015.202
Turning to B1, the “FACS area under log transformed data MFI” value in test [1] was determined as 1410; in test [2], 812; in [3], 370; in test [4], 388. Also, the “FACS area under log transformed data MFI ratio (+insulin/-insulin)” value is 0.26 in test [5] and 0.48 in test [6].

B2: Ab082 (antibody, IgG2, V domains shown)
VH: QMQLVQSGAEVKKPGESLKISCKGSGYSFTSYWIGWVRQMPGKGLEWMGIIYPGDSDTRYSPSFQGQVTISADKSISTAYLQWSSLKASDTAMYYCARWGPDAFDIWGQGTMVTVSS
VL: EIVLTQSPDFQSVTPKETVTISCRASQNIGVSLHWYQQKPDQSPKVLIKYASQSLSGVPSRFSGTGSGTDFTLTIKSLEAEDAATYYCLQTSSLPWTFGQGTKVEIK
notes: also called XPA.015.248
On to B2, for which the “FACS area under log transformed data MFI” value in test [7] stood at 399; in test [8], 257; in test [9] it was 267. In test [10], the “FACS area under log transformed data MFI ratio (+insulin/-insulin)” value amounted to 1.04.

B3: Ab074 (antibody, IgG2, V domains shown)
VH: EVQLVQSGAEVKKPGESLKISCKGSGYSFTSYWIGWVRQMPGKGLEWMGIIYPGDSDTRYSPSFQGQVTISADKSISTAYLQWSSLKASDTAMYYCARWDAGYSPWGQGTLVTVSS
VL: SSELTQDPAVSVALGQTVRITCQGDSLRSYYASWYQQKPGQAPVLVIYGKNNRPSGIPDRFSGSSSGNTASLTITGAQAEDEADYYCSSRDSSGDQWVFGGGTKLTVL
notes: also called XPA.015.230
As for B3, the “FACS area under log transformed data MFI” value in test [7] worked out at 596; in test [8], 932; in test [11] it was 260; in test [9] it was 503. For the same molecule, the “FACS area under log transformed data MFI ratio (+insulin/-insulin)” value in [12] came to 0.44; in test [10], 0.54.

B4: Ab071 (antibody, IgG2, V domains shown)
VH: B3 VH
VL: B3 VL with I47F, D59G, S65K, S88N, D95N, Q96H
notes: also called XPA.015.227
In the case of B4, the figures for the “FACS area under log transformed data MFI” value in test [7], in [8] and in test [9] were 490, 818 and 518, respectively. Also, the “FACS area under log transformed data MFI ratio (+insulin/-insulin)” value in test [10] came out at 0.63.

B5: Ab083 (antibody, IgG2, V domains shown)
VH: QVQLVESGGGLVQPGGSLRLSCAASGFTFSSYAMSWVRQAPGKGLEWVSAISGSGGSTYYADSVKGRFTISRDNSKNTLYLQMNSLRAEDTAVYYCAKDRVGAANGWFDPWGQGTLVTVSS
VL: AIQLTQSPSSLSASVGDRVTISCRASQSITSYLNWYQQKPGKAPNLLIYAASSLQSGVPSRFSGSGSGTDFTLTIAGLQPEDFATYYCQQFDSYPFTFGGGTKLEIK
notes: also called XPA.015.249
For the molecule B5, the Kd in test [13] was 7.6 nM; in [14], 0.376 nM. For the same molecule, the results for the “FACS area under log transformed data MFI” value in test [8], in test [11] and in test [9] were 81, 294 and 179, respectively.

B6: Ab084 (antibody, IgG2, V domains shown)
VH: QVQLVESGGGLVQPGGSLRLSCAASGFTFKNYWMTWVRQAPGKGLEWVADIKGDGSRQHYADSVKGRFTISRDNARNSLFLQMNSLRVEDTALYYCATDPPWDRDAFDLWGQGTMVTVSS
VL: AIRMTQSPSTLSASVGDRVTITCRASQSISSWLAWYQQTPGKAPKLLIYAASNLQSGVPSRFSGSGSGTDFTLTISSLQPEDFATYYCQQSYNTPLTFGGGTKVEIK
notes: also called XPA.015.250
Turning to B6, the “FACS area under log transformed data MFI” value in [7] was 532; in [8], 196; in test [11] it was 508; in [9], 344. Also, the “FACS area under log transformed data MFI ratio (+insulin/-insulin)” value came out at 0.95 in [12] and 1.75 in [10].

B7: Ab072 (antibody, IgG2, V domains shown)
VH: QMQLVQSGAEVKKPGESLKISCKGSGYSFTGYWIGWVRQMPGKGLEWMGIIYPGDSDTRYSPSFQGQVTISADKSISTAYLQWSSLKVSDTAMYYCGRISTPYAFDIWGQGTMVTVSS
VL: SYVLTQPPSASGTPGQRVTISCSGSNSNIGSNFVTWYQQLPGAAPKLLIYTNSQRPSGVPDRFSGSRSGTSASLAISGLQSEDEADYFCAAWDDSLNGPVFGGGTQLTVL
notes: also called XPA.015.228
On to B7, for which the “FACS area under log transformed data MFI” value in test [7] was 226; in test [8] it was 508; in [9], 267. Also, the “FACS area under log transformed data MFI ratio (+insulin/-insulin)” value in test [10] was found to be 0.53.

B8: Ab076 (antibody, V domains shown)
VH: EVQLVESGGGVVQPGGSLRLSCAASGFTFDDYAMHWVRQAPGKGLEWVSLISWDGGSTYYADSVKGRFTISRDNSKNSLYLQMNSLRAEDTALYYCAKARGVVIIDYWGQGTLVTVSS
VL: EIVMTQSPATLSVSPGERATLSCRASQSISTNLAWYQQKPGQTPRLLIYGASTRATGIPARFSGSGSGTEFTLTISSLQSEDFAVYYCQQYNSEISFGQGTRLEIK
notes: also called XPA.015.241
For the molecule B8, the “FACS area under log transformed data MFI” value was 552 in test [7], 268 in test [8], 543 in test [11] and 391 in test [9]. Besides, the figures for the “FACS area under log transformed data MFI ratio (+insulin/-insulin)” value in test [12] and in [10] were 0.98 and 1.46, respectively.

B9: Ab073 (antibody, IgG2, V domains shown)
VH: QVQLQESGPGLVKPSGTLSLTCAVSGGSISSSNWWSWVRQPPGKGLEWIGEIYHSGSTNYNPSLKSRVTISVDKSKNQFSLKLSSVTAADTAVYYCARVGAAAAWFDPWGQGTLVTVSS
VL: QSVLTQPPSVSAAAGQKVTISCSGSSSNIGNNYVTWYQHVPGTAPKLLIFDNDKRPSGIPDRFSGSKSGTSATLAITGLQTGDEADYYCGTWDSSLNPLFGGSTQLTVL
notes: also called XPA.015.229
With B9, the “FACS area under log transformed data MFI” value turned out to be 729 in test [7], 307 in [8], 341 in test [11] and 321 in test [9]. In addition, the figures for the “FACS area under log transformed data MFI ratio (+insulin/-insulin)” value in [12] and in [10] were 0.47 and 1.05, respectively.

B10: Ab075 (antibody, IgG2, V domains shown)
VH: EVQLVETGGGVVQPGRSLRLSCAASGFSFSSYDMYWVRQAPGKGLEWVAVISYDGNDKQYADSVKGRFTISRDNSKRTLYLQMDSLRTEDTATYYCTREGNGREIDYWGPGTLVTVSS
VL: B9 VL with A14P, S103G
notes: also called XPA.015.232
For B10, the “FACS area under log transformed data MFI” value in test [7] was determined as 692; in test [8], 425; in test [11], 353; in test [9], 446. The “FACS area under log transformed data MFI ratio (+insulin/-insulin)” value in test [12] came out at 0.51; in test [10] it was 1.05.

Source of the values: US20160009800A1 (XOMA US, published 2016).
